Experimental data from patent US20180291360.
Like-named read-outs stand apart in the source and are kept apart here.

Legend:
[1] = tested on: peptide TPAAAR
[2] = molecular target: T1, peptide TPAAAR
T1 chain: TPAAAR

[3] = molecular target: T2, peptide KPGQPMY
T2 chain: KPGQPMY

[4] = molecular target: T3, peptide WHWLQLKPGQPMY
T3 chain: WHWLQLKPGQPMY

COROLASE LAP (fungal exo-peptidase, AB Enzymes)
hydrolysis of the peptide, LC-MS label free quantification [1]: show no hydrolysis of TPAAAR within 12 hr

B1: TRI032, PepN 2 (aminopeptidase type 2) from Myceliophthora thermophila ATCC 42464 (protein)
chain: GGHGGSSGLGCDSQRPLVSSEKLQSLIKKEDLLAGSQELQDIATAHGGHRAFGSSGHNATVDFLYYTLKALDYYNVTKQPFKEIFSSGTGSLTVDGEDIEAETLTYTPSGSATDKPVVVVANVGCDAADYPAEVAGNIALIKRGTCTFSQKSVNAKAAGAVAAIIYNNAEGKLSGTLGQPFLDYAPVLGITLEAGEALLAKLAGGPVTATLQIDALVEERVTYNVIAETKEGDHSNVLVLGGHTDSVPAGPGINDDGSGTIGMLTVAKALTKFRVKNAVRFAFWSAEEYGLLGSYAYIKSINSSAAELSKIRAYLNFDMIASPNYIYGIYDGDGNAFNLTGPAGSDVIERNFENFFKRKHTPSVPTEFSGRSDYAAFIENGIPSGGLFTGAEVLKTEREAELFGGRAGVAYDVNYHQAGDTVDNLALDAFLLNTKAIADSVATYALSFDGLPRVDGKKRRWDAHRARMLKRSAGSHGHAHLHSGPCGGGASI
hydrolysis of the peptide, LC-MS label free quantification [2]: can hydrolyze the peptide TPAAAR over time to less than half the concentration within 2 hr incubation

B2: TRI035, PepN 2 (aminopeptidase type 2) from Aspergillus clavatus NRRL 1 (protein)
chain: NAPGGPGGHGRKLPVNPKTFPNEIRLKDLLHGSQKLEDFAYAYPERNRVFGGQAHLDTVNYLYRELKKTGYYDVYKQPQVHQWTRADQSLTLGGDSIQASTMTYSPSVNVTAPLSLVSKLGCAEGDYSADVKGKIALVSRGECSFAQKSVLSAKAGAVATIVYNNVDGSLAGTLGGATSELGPYSPIIGITLAAGQDLVARLQAAPTEVSLWIDSKVENRTTYNVIAQTKGGDPNNVVALGGHTDSVENGPGINDDGSGVISNLVVAKALTRYSVKNAVRFCFWTAEEFGLLGSNYYVDNLSPAELAKIRLYLNFDMIASPNYALMIYDGDGSAFNLTGPPGSAQIESLFENYYKSIKQGFVPTAFDGRSDYEGFILKGIPAGGVFTGAESLKTEEQARLFGGQAGVALDANYHAKGDNMTNLNHKAFLINSRATAFAVATYANNLSSIPPRNATVVKRESMKWTKREEPHTHGADTGCFASRVKE
hydrolysis of the peptide (X-Pro bond), LC-MS label free quantification [3]: to KPGQPMY (FIG. 6) and further down to QPMY (FIG. 7) | hydrolysis of the peptide, LC-MS label free quantification [2]: can hydrolyze the peptide TPAAAR over time to less than half the concentration within 2 hr incubation | hydrolysis of the peptide, LC-MS label free quantification [4]: TRI031 and TRI035 can hydrolyze the peptide WHWLQLKPGQPMY (FIG. 5) to KPGQPMY (FIG. 6) and further down to QPMY (FIG. 7)

B3: TRI031, PepN 2 (aminopeptidase type 2) from Neosartorya fischeri NRRL 181 (protein)
chain: NGPGWDWKPPVHPKVLPQMIHLWDLMHGAQKLEDFAYAYPERNRVFGGPAHEDTVNYLYRELKKTGYYDVYKQPQVHQWTRADQALTVDGKSYVATTMTYSPSVNVTAPLAVVNNLGCVESDYPADLKGKIALVSRGECPFATKSVLSAKAGAAAALVYNNIEGSMAGTLGGPTSELGPYAPIAGISLADGQALIQMIQAGTVTANLWIDSKVENRTTYNVIAQTKGGDPNNVVALGGHTDSVEAGPGINDDGSGIISNLVVAKALTRFSVKNAVRFCFWTAEEFGLLGSSYYVNSLNATEKAKIRLYLNFDMIASPNYALMIYDGDGSAFNLTGPAGSAQIERLFEDYYKSIRKPFVPTEFNGRSDYEAFILNGIPAGGIFTGAEAIKTEEQAKLFGGQAGVALDANYHAKGDNMTNLNREAFLINSKATAFAVATYANSLDSIPSRNMSTVVKRSQLEQAKKSTPHTHTGGTGCYKDRVEQ
hydrolysis of the peptide (X-Pro bond), LC-MS label free quantification [3]: to KPGQPMY (FIG. 6) and further down to QPMY (FIG. 7) | hydrolysis of the peptide, LC-MS label free quantification [4]: TRI031 and TRI035 can hydrolyze the peptide WHWLQLKPGQPMY (FIG. 5) to KPGQPMY (FIG. 6) and further down to QPMY (FIG. 7)

B4: TRI063, leucine aminopeptidase 2 from Aspergillus oryzae RIB40 (NCBI Reference Sequence XP_001819545.1) (protein)
chain: RALVSPDEFPEDIQLEDLLEGSQQLEDFAYAYPERNRVFGGKAHDDTVNYLYEELKKTGYYDVYKQPQVHLWSNADQTLKVGDEEIEAKTMTYSPSVEVTADVAVVKNLGCSEADYPSDVEGKVALIKRGECPFGDKSVLAAKAKAAASIVYNNVAGSMAGTLGAAQSDKGPYSAIVGISLEDGQKLIKLAEAGSVSVDLWVDSKQENRTTYNVVAQTKGGDPNNVVALGGHTDSVEAGPGINDDGSGIISNLVIAKALTQYSVKNAVRFLFWTAEEFGLLGSNYYVSHLNATELNKIRLYLNFDMIASPNYALMIYDGDGSAFNQSGPAGSAQIEKLFEDYYDSIDLPHIPTQFDGRSDYEAFILNGIPSGGLFTGAEGIMSEENASRWGGQAGVAYDANYHAAGDNMTNLNHEAFLINSKATAFAVATYANDLSSIPKRNTTSSLHRRARTMRPFGKRAPKTHAHVSGSGCWHSQVEA
hydrolysis of the peptide, LC-MS label free quantification [2]: show no hydrolysis of TPAAAR within 12 hr | hydrolysis of the peptide, LC-MS label free quantification [4]: we also find that their enzyme cleaves the peptide down to QPMY (FIG. 7)
